The source of these data is patent publication US20030166162A1.

The assay concerns the target thrombin. In words: cell-based or functional assay.

GST (Glutathion-S-transferase) expressed from pGEX-4T-3, sequence (P08515 whole entry): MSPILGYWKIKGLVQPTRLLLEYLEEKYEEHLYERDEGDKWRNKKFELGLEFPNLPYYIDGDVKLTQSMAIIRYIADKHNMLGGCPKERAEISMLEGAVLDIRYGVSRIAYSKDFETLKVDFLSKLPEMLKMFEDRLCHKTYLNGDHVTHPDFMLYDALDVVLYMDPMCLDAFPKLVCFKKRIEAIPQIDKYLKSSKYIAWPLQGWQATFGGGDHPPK

For “cleavage product of GST-Pro-Hirudin treated at pH 2.0 with 2 ug chymosin”, the thrombin activity, delta Abs (405 nm)/2 min, Test 1; sample C: pH 2.0 + 2 ug chymosin (Abs (405 nm)/2 min) was 0.066 and the thrombin activity, delta Abs (405 nm)/2 min, Test 2; sample C: pH 2.0 + 2 ug chymosin (Abs (405 nm)/2 min) came out at 0.07.
Consider “hirudin released from GST-Pro-Hirudin by treatment at pH 4.5 with 2 ug chymosin (from UniProt P01050 1-65)”, for which the thrombin activity, delta Abs (405 nm)/2 min, Test 1; sample E: pH 4.5 + 2 ug chymosin (Abs (405 nm)/2 min) came to 0.0002 and the thrombin activity, delta Abs (405 nm)/2 min, Test 2; sample E: pH 4.5 + 2 ug chymosin (Abs (405 nm)/2 min) was 0.0001.
On to “GST (Glutathion-S-transferase) expressed from pGEX-4T-3 (from UniProt P08515 1-218)”, for which the thrombin activity, delta Abs (405 nm)/2 min, Test 1; sample A: supernatant + water (Abs (405 nm)/2 min) was found to be 0.087; the thrombin activity, delta Abs (405 nm)/2 min, Test 1; sample B: pH 2.0 (Abs (405 nm)/2 min) worked out at 0.082; the thrombin activity, delta Abs (405 nm)/2 min, Test 1; sample C: pH 2.0 + 2 ug chymosin (Abs (405 nm)/2 min) is 0.063; the thrombin activity, delta Abs (405 nm)/2 min, Test 1; sample D: pH 4.5 (Abs (405 nm)/2 min) came out at 0.087. The thrombin activity, delta Abs (405 nm)/2 min, Test 1; sample E: pH 4.5 + 2 ug chymosin (Abs (405 nm)/2 min) stood at 0.087; the thrombin activity, delta Abs (405 nm)/2 min, Test 2; sample A: supernatant + water (Abs (405 nm)/2 min) came to 0.082; the thrombin activity, delta Abs (405 nm)/2 min, Test 2; sample B: pH 2.0 (Abs (405 nm)/2 min) amounted to 0.073; the thrombin activity, delta Abs (405 nm)/2 min, Test 2; sample C: pH 2.0 + 2 ug chymosin (Abs (405 nm)/2 min) came to 0.073. Moreover, the thrombin activity, delta Abs (405 nm)/2 min, Test 2; sample D: pH 4.5 (Abs (405 nm)/2 min) stood at 0.086 and the thrombin activity, delta Abs (405 nm)/2 min, Test 2; sample E: pH 4.5 + 2 ug chymosin (Abs (405 nm)/2 min) was 0.087.
“Hirudin 2 ug (positive control of Table 1)” yielded a thrombin activity, delta Abs (405 nm)/2 min, Test 1; Hirudin 2 ug (Abs (405 nm)/2 min) of 0.0001 and a thrombin activity, delta Abs (405 nm)/2 min, Test 2; Hirudin 2 ug (Abs (405 nm)/2 min) of 0.0001.
